This test concerns the target Protein Serine Kinase H1 (PSKH1), recombinant full-length, wild type (human) (UniProt P11801).

Sequence of Protein Serine Kinase H1 (PSKH1), recombinant full-length, wild type (human) (P11801 whole entry): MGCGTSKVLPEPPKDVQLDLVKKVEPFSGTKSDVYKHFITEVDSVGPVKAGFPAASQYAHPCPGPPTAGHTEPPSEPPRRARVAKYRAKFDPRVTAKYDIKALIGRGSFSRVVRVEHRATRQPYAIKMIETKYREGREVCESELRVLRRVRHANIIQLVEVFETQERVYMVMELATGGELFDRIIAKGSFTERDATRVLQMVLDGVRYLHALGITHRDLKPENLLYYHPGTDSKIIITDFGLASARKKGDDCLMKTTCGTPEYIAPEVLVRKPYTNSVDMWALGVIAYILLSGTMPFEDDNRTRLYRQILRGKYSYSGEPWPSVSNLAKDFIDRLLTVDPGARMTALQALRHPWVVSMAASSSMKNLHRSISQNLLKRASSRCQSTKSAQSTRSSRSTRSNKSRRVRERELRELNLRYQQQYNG

Take “Calmodulin, recombinant (His6-Calmodulin) (from UniProt P0DP23 1-149) (natural protein)”: the half-maximal activation (EC50) of HA-tagged PSKH1 (10 ng) kinase activity, titration of CaM 0-1,000 nM, radiometric assay was found to be 58.7 nM and the radiometric kinase assay (ADR1 peptide phosphorylation) of HA-tagged PSKH1 (10 ng) with Ca2+-CaM (1 uM) is 10 fold.
